T1: Rrp41/Rrp45 heterodimer (S. cerevisiae, UniProt P46948 1-246; Q05636 1-305)
T1 sequence (looked up) 1: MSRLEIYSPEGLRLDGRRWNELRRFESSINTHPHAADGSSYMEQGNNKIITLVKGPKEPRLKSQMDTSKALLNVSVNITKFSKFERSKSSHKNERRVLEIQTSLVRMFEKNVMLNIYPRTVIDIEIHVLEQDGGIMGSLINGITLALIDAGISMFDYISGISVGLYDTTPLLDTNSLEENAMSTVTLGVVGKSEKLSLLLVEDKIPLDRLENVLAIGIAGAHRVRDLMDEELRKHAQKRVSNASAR
T1 sequence (looked up) 2: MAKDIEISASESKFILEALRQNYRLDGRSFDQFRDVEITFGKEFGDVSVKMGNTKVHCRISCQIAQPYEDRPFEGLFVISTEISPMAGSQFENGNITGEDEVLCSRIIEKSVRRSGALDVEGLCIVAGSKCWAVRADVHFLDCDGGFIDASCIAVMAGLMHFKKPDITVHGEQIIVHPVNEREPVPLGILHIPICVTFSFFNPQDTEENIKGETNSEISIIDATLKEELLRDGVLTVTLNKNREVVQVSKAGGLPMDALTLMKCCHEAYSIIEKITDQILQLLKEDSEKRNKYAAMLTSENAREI


The binders below were run against T1, Rrp41/Rrp45 heterodimer (assay: SEC).

Row | binding result | Binder
1 | binds | Rrp40 (natural protein, S. cerevisiae, UniProt Q08285 1-240, looked up) MSTFIFPGDSFPVDPTTPVKLGPGIYCDPNTQEIRPVNTGVLHVSAKGKSGVQTAYIDYSSKRYIPSVNDFVIGVIIGTFSDSYKVSLQNFSSSVSLSYMAFPNASKKNRPTLQVGDLVYARVCTAEKELEAEIECFDSTTGRDAGFGILEDGMIIDVNLNFARQLLFNNDFPLLKVLAAHTKFEVAIGLNGKIWVKCEELSNTLACYRTIMECCQKNDTAAFKDIAKRQFKEILTVKEE
2 | binds | Csl4 (natural protein, S. cerevisiae, UniProt P53859 1-292, looked up) MACNFQFPEIAYPGKLICPQYGTENKDGEDIIFNYVPGPGTKLIQYEHNGRTLEAITATLVGTVRCEEEKKTDQEEEREGTDQSTEEEKSVDASPNDVTRRTVKNILVSVLPGTEKGRKTNKYANNDFANNLPKEGDIVLTRVTRLSLQRANVEILAVEDKPSPIDSGIGSNGSGIVAAGGGSGAATFSVSQASSDLGETFRGIIRSQDVRSTDRDRVKVIECFKPGDIVRAQVLSLGDGTNYYLTTARNDLGVVFARAANGAGGLMYATDWQMMTSPVTGATEKRKCAKPF
3 | binds | Rrp4 (natural protein, S. cerevisiae, UniProt P38792 1-359, looked up) MSEVITITKRNGAFQNSSNLSYNNTGISDDENDEEDIYMHDVNSASKSESDSQIVTPGELVTDDPIWMRGHGTYFLDNMTYSSVAGTVSRVNRLLSVIPLKGRYAPETGDHVVGRIAEVGNKRWKVDIGGKQHAVLMLGSVNLPGGILRRKSESDELQMRSFLKEGDLLNAEVQSLFQDGSASLHTRSLKYGKLRNGMFCQVPSSLIVRAKNHTHNLPGNITVVLGVNGYIWLRKTSQMDLARDTPSANNSSSIKSTGPTGAVSLNPSITRLEEESSWQIYSDENDPSISNNIRQAICRYANVIKALAFCEIGITQQRIVSAYEASMVYSNVGELIEKNVMESIGSDILTAEKMRGNGN
